Laboratory results published in US20260176659A1, “IMPROVED METHOD FOR THE PRODUCTION OF NATURAL VANILLIN” (BASE SE, priority 2022, published 2026).

What was measured:
[1] = Spectrophotometric enzymatic assay: cleaving activity, production of vanillin from coniferyl alcohol at 349 nm; format: biochemical; conditions: freeze-dried cell free extract incl. buffer salts; vanillin from coniferyl alcohol
Method: Stock solution 200× of coniferyl alcohol (90 mg) was prepared in ethanol (5 mL) and stored at −20° C. From this, a new stock solution 20× of coniferyl alcohol (10 mM) was freshly prepared by 1:10 dilution in Glycine-NaOH (50 mM, pH 9.0). A cuvette containing 0.750 mL Glycine-NaOH (50 mM, pH 9.0) and 0.05 mL of the substrate 20× stock was pre-warmed at 25° C. for 1.5 mins. Then, the reaction was initiated by the addition of 0.2 mL of the enzyme sample. The cleaving […] activity was measured spectrophotometrically following the production of vanillin at 349 nm (ε349=26.7 mM^−1cm^−1 experimentally determined). One unit of activity (U) is defined as the amount of enzyme required to produce 1 μmol of vanillin per min. Agilent Cary 60 UV-Vis Spectrophotometer was used for all the measurements.
Searching for alternative novel alkene cleavage oxygenases (COs) catalysing the formation of vanillin from coniferyl alcohol was performed. A set of 27 sequences and 10 COs from different branches of the phylogenetic tree were selected, named CO-02-11. Two additional enzymes were included, which are located in different clusters of the phylogenetic tree: Lignostillbene dioxygenase from Pseudomonas brassicaceraum (PbLSD, PDB: 5V2D) and aromatic dioxygenase (Ado, CO-01) from Thermothelomyces thermophilus (GenBank ID: XP_003665585). The proteins were recombinantly expressed in E. coli BL21(DE3), following the same protocol developed for IECO. […] Putative COs were screened by spectrophotometric assay, monitoring the formation of 3a upon 2a cleavage. From a set of twelve COs, four positive hits, namely CO-01, CO-03, CO-06 and CO-07 were found. Positive variants were tested in the one pot cascade and compared them with IECO In agreement with the spectrophotometric screening, all four COs converted eugenol 1a to vanillin 3a (Table 8). The first step of the cascade is efficiently performed by EUGO, and the substrate is completely consumed. […] Overall, 70±3% conversion of 1a to vanillin 3a was achieved.

[2] = Biotransformation of coniferyl alcohol to vanillin catalysed by IECO (5 mM); format: biochemical; conditions: 5 mM 2a; for Consumption of 2a / Conversion of 2a to 3a (%) / Conversion of 2a to 5a (%) / Reaction composition at 24 hours (%) 2a / Reaction composition at 24 hours (%) 3a / Reaction composition at 24 hours (%) 5a: pH 9.0
Method: 180 mg of coniferyl alcohol were weighted and dissolved in 10 mL ethanol and stored at −20° C. (stock 100 mM). The reaction mixtures (0.5 mL) were set up in 1.5 mL glass vials as follows: […] (50 mM, pH 9.0) together with sodium ascorbate (1 mM), FeSO4 (1 mM) and bovine liver catalase (Sigma C40, 0-10 mg/mL). The reaction was initiated by the addition of coniferyl alcohol stock (0.025 mL, final concentration 5 mM), then it was incubated for 24 hours at 30° C. and 120 rpm (rotary shaker). Note that the reaction contained 5% v/v ethanol deriving from the substrate stock. To improve the oxygenation, the vials were placed horizontally. At certain time points, reaction samples were taken and quenched with methanol (2 vol. equivalents). The mixture was centrifuged for 5-10 mins at 20238 g. Then supernatant was finally transferred in a HPLC vial for analysis.

[3] = IECO CFE Fresh 1 mg/mL, 24 h, non-optimised
[4] = IECO CFE Fresh 2 mg/mL, 24 h, non-optimised
[5] = IECO CFE Stored at −20° 2 mg/mL, 24 h, non-optimised
[6] = IECO CFE Stored at −20° C. 3 mg/mL, 24 h, non-optimised
[7] = IECO fresh CFE 1 mg/mL, catalase 0 mg/mL
[8] = IECO fresh CFE 1 mg/mL, catalase 2 mg/mL
[9] = IECO fresh CFE 1 mg/mL, catalase 10 mg/mL
[10] = IECO fresh CFE 2 mg/mL, catalase 0 mg/mL
[11] = IECO fresh CFE 2 mg/mL, catalase 2 mg/mL
[12] = IECO fresh CFE 2 mg/mL, catalase 10 mg/mL
[13] = IECO fresh CFE 4 mg/mL, catalase 0 mg/mL
[14] = IECO fresh CFE 4 mg/mL, catalase 2 mg/mL
[15] = IECO fresh CFE 4 mg/mL, catalase 10 mg/mL

B1: IECO: isoeugenol cleavage oxygenase from Pseudomonas nitroreducens (GenBank: ACP17973), SEQ ID NO: 24 (protein, listed as Pseudomonas nitroreducens)
chain: MARLNRNDPQLVGTLLPTRIEADLFDLEVDGEIPKSINGTFYRNTPEPQVTPQKFHTFIDGDGMASAFHFEDGHVDFISRWVKTARFTAERLARKSLFGMYRNPYTDDTSVKGLDRTVANTSIISHHGKVLAVKEDGLPYELDPRTLETRGRFDYDGQVTSQTHTAHPKYDPETGDLLFFGSAAKGEATPDMAYYIVDKHGKVTHETWFEQPYGAFMHDFAITRNWSIFPIMPATNSLSRLKAKQPIYMWEPELGSYIGVLPRRGQGSQIRWLKAPALWVFHVVNAWEVGTKIYIDLMESEILPFPFPNSQNQPFAPEKAVPRLTRWEIDLDSSSDEIKRTRLHDFFAEMPIMDFRFALQCNRYGFMGVDDPRKPLAHQQAEKIFAYNSLGIWDNHRGDYDLWYSGEASAAQEPAFVPRSPTAAEGDGYLLTVVGRLDENRSDLVILDTQDIQSGPVATIKLPFRLRAALHGCWVPRP
For B1, the “Specific Activity (mU/mg of FD-CFE)” value [1] was 2.8 mU/mg, the vanillin afforded ([2]; IECO 4 mg CFE/mL in the presence of catalase, 24 h) was 3.6 ± 0.6 mM and the “Consumption of 2a” value [2, 3] was 24%. For the same molecule, the “Conversion of 2a to 3a (%)” value [2, 3] was 9%, the “Consumption of 2a” value [2, 4] was 45% and the “Conversion of 2a to 3a (%)” value [2, 4] was 17%. For the same molecule, the “Consumption of 2a” value [2, 5] was 12%, the “Conversion of 2a to 3a (%)” value [2, 5] was 4% and the “Conversion of 2a to 5a (%)” value [2, 5] was 1%. The “Consumption of 2a” value [2, 6] was 18%, the “Conversion of 2a to 3a (%)” value [2, 6] was 5% and the “Conversion of 2a to 5a (%)” value [2, 6] was 13%. For the same molecule, the “Reaction composition at 24 hours (%) 2a” value [2, 7] was 46 ± 3%, the “Reaction composition at 24 hours (%) 3a” value [2, 7] was 51 ± 3% and the “Reaction composition at 24 hours (%) 5a” value [2, 7] was 3 ± 1%. For the same molecule, the “Conversion of 2a to 3a (%)” value ([2]; IECO fresh CFE 1 mg/mL, catalase 0 mg/mL, 24 h) was 38 ± 4%, the “Reaction composition at 24 hours (%) 2a” value [2, 8] was 41 ± 6% and the “Reaction composition at 24 hours (%) 3a” value [2, 8] was 58 ± 6%. The “Reaction composition at 24 hours (%) 5a” value [2, 8] was 1 ± 0.1%, the “Conversion of 2a to 3a (%)” value ([2]; IECO fresh CFE 1 mg/mL, catalase 2 mg/mL, 24 h) was 44 ± 5% and the “Reaction composition at 24 hours (%) 2a” value [2, 9] was 41 ± 3%. The “Reaction composition at 24 hours (%) 3a” value [2, 9] was 58 ± 1%, the “Reaction composition at 24 hours (%) 5a” value [2, 9] was 1 ± 0.1% and the “Conversion of 2a to 3a (%)” value ([2]; IECO fresh CFE 1 mg/mL, catalase 10 mg/mL, 24 h) was 45 ± 3%. For the same molecule, the “Reaction composition at 24 hours (%) 2a” value [2, 10] was 25 ± 4%, the “Reaction composition at 24 hours (%) 3a” value [2, 10] was 71 ± 4% and the “Reaction composition at 24 hours (%) 5a” value [2, 10] was 5 ± 1%. For the same molecule, the “Conversion of 2a to 3a (%)” value ([2]; IECO fresh CFE 2 mg/mL, catalase 0 mg/mL, 24 h) was 53 ± 3%, the “Reaction composition at 24 hours (%) 2a” value [2, 11] was 27 ± 3% and the “Reaction composition at 24 hours (%) 3a” value [2, 11] was 72 ± 3%. The “Reaction composition at 24 hours (%) 5a” value [2, 11] was 1 ± 0.3%, the “Conversion of 2a to 3a (%)” value ([2]; IECO fresh CFE 2 mg/mL, catalase 2 mg/mL, 24 h) was 58 ± 3% and the “Reaction composition at 24 hours (%) 2a” value [2, 12] was 22 ± 4%. For the same molecule, the “Reaction composition at 24 hours (%) 3a” value [2, 12] was 77 ± 4%, the “Reaction composition at 24 hours (%) 5a” value [2, 12] was 1 ± 0.1% and the “Conversion of 2a to 3a (%)” value ([2]; IECO fresh CFE 2 mg/mL, catalase 10 mg/mL, 24 h) was 59±3%. The “Reaction composition at 24 hours (%) 2a” value [2, 13] was 9.1 ± 3%, the “Reaction composition at 24 hours (%) 3a” value [2, 13] was 82 ± 5% and the “Reaction composition at 24 hours (%) 5a” value [2, 13] was 9 ± 4%. For the same molecule, the “Conversion of 2a to 3a (%)” value ([2]; IECO fresh CFE 4 mg/mL, catalase 0 mg/mL, 24 h) was 56 ± 10%, the “Reaction composition at 24 hours (%) 2a” value [2, 14] was 11 ± 3% and the “Reaction composition at 24 hours (%) 3a” value [2, 14] was 84 ± 5%. The “Reaction composition at 24 hours (%) 5a” value [2, 14] was 5 ± 4%, the “Conversion of 2a to 3a (%)” value ([2]; IECO fresh CFE 4 mg/mL, catalase 2 mg/mL, 24 h) was 62 ± 10% and the “Reaction composition at 24 hours (%) 2a” value [2, 15] was 13 ± 1%. The “Reaction composition at 24 hours (%) 3a” value [2, 15] was 86 ± 13% and the “Reaction composition at 24 hours (%) 5a” value [2, 15] was 1 ± 0.1%.
